The results in this text go back to a protein production outcome set (Wang et al. 2014).

This series can be described thus: label from the status in PepcDB records.

For “GDFGRHSITSGGSGGGGFRQRGSSGSSSRHTERGYSSGRSGASSYNGREGGGSGFNRREVYGGGRDSSRYSSGSSASYGRTGGQSAGRFRSRSPVGNHRF”, the protein production entry is reported as “failed”. With “GDIGGIAQITSSLFLGRGSVASNRHLLQARGITCIVNATIEIPNFNWPQFEYVKVPLADMPHAPIGLYFDTVADKIHSVSRKHGATLVHCAAGVSRSATLCIAYLMKFHNVCLLEAYNWVKARRPVIRPNVGFWRQLIDYERQLFGKSTVKMVQTPYGIVPDVYEKESRHLMPYWG”, the protein production result was “failed”.

Consider “GERCEPIELLSINLPEESSSRIIDIVTRRKGEMVMMENKNDRVFMEFHIPSRGIIGLNNAVLTASAGEAVIAHRFLEFQPWKGEIERRSNGSIIALESGTAYAYALNNLQSRGRFFISPQEEVYAG”, for which the protein production entry is given as “failed”.

With “GFSHRSQQLLEQSVAKQLPLLERKYHQKNLEAAMVVTDIASGEIRALVGGRESGYAGFNRALNAKRHIGSLIKPAIYVAALERYQQYNFATILDDKAITLRNGTGKKWQPKNYDGKYRGQVSLIEGLVFSLNVPTINLGMSLGLDSVADAIKALGYQQKLKMRPSVLLGAVNMSPLEINQLYLAIANNGYYQKTHTITKILSSNNETLWQKQQSSEQRLSSNAAYLLDYALERVTQVGTARSLTWRLNNKKVAGKTGTSNALRDSWFIGYDSKHLITTWLGKDNNKPTGLTGSSGALPLFADFINKQGVINKVEAK”, the protein production result is given as “failed”. Then “GGEVHAAWHLRYAGRDFFVKCDERELLPGFTAEADQLELLSRSKTVTVPKVWAVGADRDYSFLVMDYLPPRPLDAHSAFILGQQIARLHQWSDQPQFGLDFDNALSTTPQPNTWQRRWSTFFAEQRIGWQLELAAEKGIAFGNIDAIVEHIQQRLASHQPQPSLLHGDLWSGNCALGPDGPYIFDPACYWGDRECDLAMLPLHTEQ”, with “failed”. Regarding “GKIEEVVLGATKADGGTREYTVTLGGERSLAFYTFDAPQPHLPAIAIDVFDRRPMLAKAVRMHYEDVLDNPAEWARKCVKKFGADLVTLHLISTDPLLDDTPASEAVKVLEDVLQAVKCPIIVGGSGNKEKDPEVLEKAAEVAEGERIMLASATLDMDWERIANAAKKYGHVVLSWTQMDINNQKTLNRYLLKRVEMPRDSIVMDPTTAALGYGLDYAFTNMERIRISGLKGDTDLNFPISSGTTNAWGAREAWMVDSPIEEDTPWGPRELRGPIWEIITGLTLSLAGVDLFMMMHPVAVAVLKEVFNTLGGKVSGGVADPGEWIFME”, the protein production result is “failed”.

“GKPKTDTDFQTYNGDGFKLQIPSKWNPNKEVEYPGQVLRFEDNFDATSNVIVAITPTDKKSITDFGSPEQFLSQVDYLLGRQAYSGKTDSEGGFESDAVAIANVLETSTAEVGGKQYYYLSILTRTADGNEGGKHQLVTATVNDGKLYICKAQAGDKRWFKGAKKFVENTATSFSLA”: the protein production entry is given as “not failed”. As for “GLDTGALDQQQNNNGRESIRTVNVSVNNAVTKIVSNMSPAVVGVVNIQKSDIWGESGEAGSGSGVIYKKNDHSAYVVTNHHVIEGASQIEISLKDGSRVSADLVGSDQLMDLAVLRVKSDKIKAVADFGNSDKVKSGEPVIAIGNPLGLEFAGSVTQGVISGTERAIPVDSNGDGQPDWNAEVLQTDAAINPGNSGGALLNMDGKVIGINSMKIAESAVEGIGLSIPSKLVIPVIEDLERYGKVKRPFLGIEMKSLSDIASYHWDETLKLPKNVTNGAVVMGVDAFSPAGKAGLKELDVITEFDGYKVNDIVDLRKRLYQKKVGDRVKVKFYRGGKEKSVDIKLSSA”, the protein production result is “failed”. With “GLEVTVWNRSAAACEPLVALGAARAEEVGELFGLDVVISMLADDQAIRGVLLDSGALERARPGLIHLSMSTLSLDCVEALDQAHQRQGLAFVAAPVFGRTDVAEAGKLNIVVGGPEEAIEQVKALLEIMGQKTWFFGKDPRGAMAVKISGNFMIASAIESMGESVALVKRLGVEPGRFMELMSSTLFDAPVYRNYGPQIVEQRFTPARFRLVLGLKDVDLALSAGKRHNVPLPLASLLHDVLLEAIAHGDGESDWTALAKVALSRSGQI”, the protein production result is “failed”.

Regarding “GLNHMTARYLREEHHMFRAAFRKFLEKEAYPHYNDWEKRGIIPRSFWAKMGENGFLCPWVDEKYGGLNADFAYSVVINEELEKVGSSLVGIGLHNDIVTPYIASYGTEEQKQKWLPKCVTGELITAIAMTEPGAGSDLANISTTAVKDGDYYIVNGQKTFITNGIHADLIVVACKTDPQAKPPHRGISLLVVERDTPGFTRGRKLEKVGLHAQDTAELFFQDAKVPAYNLLGEEGKGFYYLMEKLQQERLVVAIAAQTAAEVMFSLTKQYVKQRTAFGKRVSEFQTVQFRLAEMATEIALGRTFVDRVIEEHMAGKQIVTEVSMAKWWITEMAKRVAAEAMQLHGGYGYMEEYEIARRYRDIPVSAIYAGTNEMMKTIIARQLDL”, the protein production result was “not failed”.

As for “GLTTLIEMIETLSATRTINEVADVVRGAARRILDADGVAFVMRDKDLCWYVDEDAIGPLWKGKRFPMDQCVAGRVMKSGRVVVCPDIYADPDMPHDAYRPTFVKSLAIAPVRPRDPIAAIAVYWARPYDPPPEVLRKLQVVARATASALESGRLNDYLAASLEHGHFLLRELD”, the protein production entry was “failed”. Regarding “GMKTSGKQDEAWIMSRLIKQLTDMGFPREPAEEALKSNNMNLDQAMSALLEKKVDVDKRGLGVTDHNGMAAK”, the protein production entry is given as “not failed”. As to “GMNSGKVAFIVTKNGKRICDVIDECSQRGSTILKAQGGYKQDDIQVVMCACNSKEMYQVRKSVKDTDPDSFIVVVESHEVHGEGFKMTNIGEAEN”, the protein production result was “failed”. As to “GPLGSMIVFVRFNSSHGFPVEVDSDTSIFQLKEVVAKRQGVPADQLRVIFAGKELRNDWTVQNCDLDQQSIVHIVQRPWRK”, the protein production result was “not failed”. As for “GPSRMRHERVVIIKNMFHPMDFEDDPLVLNEIREDLRVECSKFGQIRKLLLFDRHPDGVASVSFRDPEEADYCIQTLDGRWFGGRQITAQAWDGTTDYQ”, the protein production result is on record as “not failed”. Then “GPSSSHTVGPMLAANAFLQLLEQKNLFDKTQRVKVELYGSLALTGKGHGTDKAILNGLENKAPETVDPASMIPRMHEILDSNLLNLAGKKEIPFHEATDFLFLQKELLPKHSNGMRFSAFDGNANLLIEQVYYSIGGGFITTEEDFDK”, with “not failed”. Then “GRPDGPVRTKKLKRGRPGRKKKKVLGCPAVAGEEEVDGYETDHQDYCEVCQQGGEIILCDTCPRAYHLVCLDPELDRAPEGKWSCPHCEKEGVQ”, with “failed”; and “GRYEIRFSGAGGQGLILAGVIMAEAASIYDGKQAVQSQSYGPEARGGASKSEVIISDGPVDYPKATQCDALLALTQEACDKYSADLKEGGVLLVDSDLVTKLPPGNYQTTAFNIINTAKNDVGREIVANIVALGAMVALTGVVSKEAAEKAVLSRVPEAFVELNRKAFQMGFEKALAAKK”, with “not failed”. To “GSAASSALKGLIQQFTTITGASESVGKHMLEACNNNLEMAVTMFLDGGG” belongs “not failed”. With “GSAHSDEQSSGTLSSPGQSDILLTAAQGTVRKAGALAVKNFLVHKKNKKVESATRRKWKHYWVSLKGCTLFFYESDGRSGIDHNSIPKHAVWVENSIVQAVPEHPKKDFVFCLSNSLGDAFLFQTTSQTELENWITAIHSACATAVAR”, the protein production entry was “failed”. “GSALIDEIRSLGESLQGYNVRHINSTIIGGGVAEILSSLVPLMEDVGLTVNWEVLAGTTEFFHTTKLFHNGMHGQPVNITGEMLENYLAIAQKNQNLLDGDADLVVIHDQQPLGLTAFRGRTRGRWLWYCHVDPRYAVPEVWYFLAPMVATCDAAVFHLP”: the protein production result is given as “failed”. On to “GSAQPRHDAQRPALAPRSDGFDIHTYHPDFVADPYPLLRLIRSRAPVCRDQASIWWISRYADVSACLRDRRFSADPARLGAAGVRQGGASWFGHQQLQPLARFYDNFMLFNDAPRHTRLRRLFAPAFGPDAVRRWEARIEVLVEELLDSLLERREPDLLRDFAEPLTIRVAAELFGFPREDTGQLLPWGRDLAAGLDLAASHGDAGQINRSAVAFSDYLQRQARGWSDGSSRPPSGAAPSILDGAAMLEAGLGLEDLVAAYAMVFMAAFETTISMVGNATLALLTHPDQLDLLRRCPELAANAVEELLRFDGAVRGGVRCTLEEVEIGGQRIPPGEKVWLSFLAANRDPEMFAAPDRLQLQRANAKQHVAFAHGPHYCLGAYLARLELQCALRGLVRRRFALASEPTDLRWRRSSVFRTLERLPIVP”, for which the protein production result was “failed”.
